# B1: FAM107A (parent)
# chain: HRRGLGVDSKPELQRVLEHRRRNQ
# B2: FCHO1 (parent)
# chain: FTSSPSPFSSSSPENVEDSGLDSP
# Variants of: B1
# Experiment: protein stability index of a GFP-peptide fusion (GPS, HEK-293T) (PSI 1-6); higher = more stable
# Details: c terminus: a fixed tail appended
# 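Also: lentivirally expressed fusions sorted by FACS into six bins by GFP to DsRed ratio, PSI derived from sequencing read proportions per bin multiplied by bin number.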
row,Variant,protein stability index
1,R15Q,3.56
2,R15S,4.43
3,R15T,4.34
4,R15W,3.21
5,R15Y,4.79
6,V16A,4.83
7,V16C,4.44
8,V16D,4.25
9,V16F,4.23
10,V16G,5.55
11,V16H,3.96
12,V16I,3.63
13,V16K,4.47
14,V16L,4.03
15,V16N,4.76
16,V16P,4.89
17,V16Q,5.45
18,V16R,4.67
19,V16S,4.01
20,V16T,3.71
21,V16Y,4.46
22,L17A,4.92
23,L17C,5.08

row,Variant,protein stability index
1,L17D,5.01
2,L17E,4.21
3,L17G,5.21
4,L17H,4.34
5,L17I,4.76
6,L17K,4.53
7,L17M,4.14
8,L17N,5.25
9,L17P,4.7
10,L17Q,4.99
11,L17S,4.79
12,L17V,4.17
13,L17W,3.71
14,L17Y,4.56
15,E18A,3.57
16,E18D,3.29
17,E18F,3.93
18,E18G,3.58
19,E18L,3.98
20,E18M,2.48
21,E18N,4.02
22,E18P,5.02
23,E18Q,2.67

row,Variant,protein stability index
1,E18R,4.12
2,E18S,2.71
3,E18T,3.58
4,E18Y,4.17
5,H19C,2.01
6,H19D,5.29
7,H19G,4.68
8,H19I,4.04
9,H19K,4.29
10,H19L,4.45
11,H19M,4.13
12,H19N,4.93
13,H19P,4.29
14,H19Q,3.67
15,H19R,4.54
16,H19S,4.82
17,H19W,1.53
18,H19Y,3.72
19,R20A,3.36
20,R20C,4.53
21,R20D,3.98
22,R20E,4.33
23,R20F,2.69

row,Variant,protein stability index
1,R20G,3.95
2,R20I,3.78
3,R20K,4.79
4,R20L,3.31
5,R20M,4.04
6,R20N,4.04
7,R20P,4.59
8,R20Q,3.96
9,R20S,4.27
10,R20T,4.42
11,R20W,3.47
12,R20Y,3.41
13,R21C,3.39
14,R21D,4.11
15,R21E,5.04
16,R21H,4.38
17,R21I,3.86
18,R21K,4.15
19,R21L,3.77
20,R21M,4.09
21,R21N,4.74
22,R21Q,4.38
23,R21S,3.37

row,Variant,protein stability index
1,R21T,3.48
2,R21W,3.64
3,R21Y,3.98
4,R22A,4.63
5,R22C,3.6
6,R22D,4.62
7,R22F,3.43
8,R22G,3.64
9,R22H,3.55
10,R22K,4.46
11,R22L,3.4
12,R22N,3.48
13,R22P,4.36
14,R22Q,3.57
15,R22S,4.79
16,R22T,3.76
17,R22W,2.46
18,R22Y,3.82
19,N23A,2.99
20,N23C,2.37
21,N23D,3.85
22,N23E,3.52
23,N23F,4.65

row,Variant,protein stability index
1,N23H,2.74
2,N23I,2.32
3,N23L,2.35
4,N23P,3.03
5,N23Q,3.14
6,N23R,3.26
7,N23V,3.33
8,Q24A,3.88
9,Q24C,3.59
10,Q24D,3.81
11,Q24E,4.59
12,Q24H,3.64
13,Q24I,2.4
14,Q24K,4.39
15,Q24L,2.49
16,Q24M,2.88
17,Q24N,4.19
18,Q24P,2.74
19,Q24S,3.57
20,Q24T,3.78
21,Q24V,3.24
22,Q24W,2.73
23,Q24Y,2.79

# Variants of: B2
# Experiment: as above
# Details: c terminus: a fixed tail appended
row,Variant,protein stability index
1,F1A,5.3
2,F1C,5.43
3,F1D,5.61
4,F1E,5.62
5,F1G,5.46
6,F1H,4.74
7,F1I,5.67
8,F1K,5.56
9,F1L,5.78
10,F1M,5.34
11,F1N,5.29
12,F1P,5.41
13,F1Q,5.16
14,F1R,5.69
15,F1S,5.49
16,F1T,5.38
17,F1V,5.51
18,F1W,5.16
19,F1Y,1.88
20,T2A,2.26
21,T2C,2.02
22,T2D,4.91
23,T2E,5.36
24,T2F,4.58
25,T2G,2.71

row,Variant,protein stability index
1,T2H,2.02
2,T2I,2.14
3,T2K,5.53
4,T2L,3.48
5,T2M,3.48
6,T2N,3.96
7,T2P,2.65
8,T2Q,1.58
9,T2R,5.01
10,T2S,2.86
11,T2V,2.93
12,T2W,3.64
13,T2Y,4.84
14,S3A,2.26
15,S3C,2.01
16,S3D,2.7
17,S3E,2.79
18,S3F,2.6
19,S3G,1.38
20,S3H,2.32
21,S3I,3.05
22,S3K,3.48
23,S3L,3.8
24,S3M,2.38
25,S3N,2.71

row,Variant,protein stability index
1,S3P,2.52
2,S3Q,2.42
3,S3R,3.59
4,S3T,1.87
5,S3V,2.05
6,S3W,2.61
7,S3Y,2.85
8,S4A,1.71
9,S4C,2.35
10,S4D,2.03
11,S4E,3.14
12,S4F,2.9
13,S4G,2
14,S4H,1.91
15,S4I,2.19
16,S4K,2.13
17,S4L,2.31
18,S4M,1.73
19,S4N,2.06
20,S4P,3.53
21,S4Q,2.14
22,S4R,1.42
23,S4T,1.93
24,S4V,1.8
25,S4W,3.58

row,Variant,protein stability index
1,S4Y,1.95
2,P5A,1.88
3,P5C,1.96
4,P5D,2.43
5,P5E,2.04
6,P5F,2.32
7,P5G,2.06
8,P5H,2.23
9,P5I,1.81
10,P5K,2.31
11,P5L,1.91
12,P5M,2.02
13,P5N,2.09
14,P5Q,2.16
15,P5R,2.08
16,P5S,2.67
17,P5T,1.69
18,P5V,2.17
19,P5W,1.87
20,P5Y,1.9
21,S6A,2.37
22,S6C,2.18
23,S6D,3.29
24,S6E,2.85
25,S6F,1.79

row,Variant,protein stability index
1,S6G,2.02
2,S6H,2.23
3,S6I,2.22
4,S6K,2.67
5,S6L,1.86
6,S6M,1.83
7,S6N,1.98
8,S6Q,2.08
9,S6R,2.21
10,S6T,2.19
11,S6V,1.99
12,S6W,2.44
13,S6Y,2.19
14,P7A,2.25
15,P7C,1.56
16,P7D,3.19
17,P7E,2.79
18,P7F,1.93
19,P7G,2.89
20,P7H,2.12
21,P7I,1.74
22,P7K,2.28
23,P7L,1.91
24,P7M,2.1
25,P7N,1.96

row,Variant,protein stability index
1,P7Q,1.86
2,P7R,2.09
3,P7S,2.25
4,P7T,2.38
5,P7V,2.24
6,P7Y,2.49
7,F8A,5.11
8,F8C,3.77
9,F8D,5.5
10,F8E,5.2
11,F8G,4.72
12,F8H,5.05
13,F8I,4.48
14,F8K,5.34
15,F8L,3.74
16,F8M,4.53
17,F8N,4.9
18,F8P,4.95
19,F8Q,4.95
20,F8R,4.29
21,F8S,5.08
22,F8T,5.39
23,F8V,4.45
24,F8Y,2.04
25,S9A,2.09

row,Variant,protein stability index
1,S9C,2.22
2,S9D,2.67
3,S9E,2.83
4,S9F,2.34
5,S9G,2.2
6,S9H,1.84
7,S9I,2.91
8,S9K,1.89
9,S9L,2.17
10,S9M,2.02
11,S9N,2.08
12,S9P,3.79
13,S9Q,2.06
14,S9R,1.76
15,S9T,2.29
16,S9V,1.73
17,S9W,2.71
18,S9Y,2.45
19,S10A,2.53
20,S10C,2.14
21,S10D,1.93
22,S10E,2.05
23,S10F,2.09
24,S10G,2.02
25,S10H,2

row,Variant,protein stability index
1,S10I,2.7
2,S10K,1.88
3,S10L,1.71
4,S10M,1.94
5,S10N,2.3
6,S10P,2.3
7,S10Q,1.92
8,S10R,2.56
9,S10T,2.15
10,S10V,2.06
11,S10W,2.7
12,S10Y,2.07
13,S11A,2.05
14,S11C,2.65
15,S11D,2.75
16,S11E,2.18
17,S11F,1.62
18,S11G,1.33
19,S11H,1.83
20,S11I,2.23
21,S11K,1.86

# Reference: the supplement of paper PMC10567573
